According to US11015206B2, “Compositions and methods comprising sequences having hydroxyphenylpyruvate dioxygenase (HPPD) activity” (PIONEER HI-BRED INTERNATIONAL, INC., priority 2014, dated 2021):

Tests used:
Assay type in all cases: biochemical, Z. mays
[1] = test system: 4-hydroxyphenylpyruvate dioxygenase (HPPD); test: Insensitivity parameter (ON × OFF) and trait fitness (ON × OFF × kcat/KM or × kcat); conditions: for ON × OFF × kcat, Value / ON × OFF × kcat, Fold vs wt / ON × OFF, fold vs wt / ON × OFF (parameters with tembotrione): Table 5, tembotrione; for ON × OFF × kcat, Fold vs wt / ON × OFF, fold vs wt: fold vs maize wild type HPPD; for ON × OFF (parameters with tembotrione): insensitivity parameter
Procedure, shortened: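 Calculated, not measured directly: ON rate ratio × OFF rate ratio gives an insensitivity parameter serving as a KD surrogate.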

[2] = test system: 4-hydroxyphenylpyruvate dioxygenase (HPPD); test: Estimate of kcat from initial rate at saturating hydroxyphenylpyruvate without inhibitor (ON rate ratio assay); conditions: Table 5; single substitutions in Round 7 variant 9070 (SEQ ID NO:2); estimate from initial rate at saturating hydroxyphenylpyruvate without inhibitor
Procedure, shortened: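 Reactions used 60 or 120 nM HPPD and saturating 100 μM hydroxyphenylpyruvate without inhibitor. kcat was estimated from the initial rate at the known enzyme concentration.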

[3] = test system: 4-hydroxyphenylpyruvate dioxygenase (HPPD); test: HPPD activity coupled assay with HGD; substrate saturation kinetic parameters (kcat, KM); conditions: Table 6; for kcat: single substitutions in SEQ ID NO:2
Procedure, shortened: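 Coupled continuous assay: His-tagged HPPD (5 to 240 nM, E. coli-expressed, Ni-NTA-purified) with 50 nM P. aeruginosa HGD in 25 mM Hepes pH 7, 2 mM ascorbate, 10 μM FeSO4; maleylacetoacetate followed at 320 nm. KM and Vmax from Lineweaver-Burke fits over 3.33–100 μM HPP.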

[4] = test system: 4-hydroxyphenylpyruvate dioxygenase (HPPD); test: ON rate ratio: HPPD reaction rate with vs without inhibitor in the 70 to 90 second interval; conditions: Table 5; tembotrione
Procedure, shortened: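 Time courses of HPPD reactions, 60 or 120 nM enzyme with 100 μM HPP substrate, run with and without 4 μM inhibitor (e.g. mesotrione, tembotrione). Value is the rate with inhibitor over rate without, taken over 70–90 s; higher ratio reflects slower kON.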

[5] = test system: 4-hydroxyphenylpyruvate dioxygenase (HPPD); test: OFF rate ratio: release of inhibitor from pre-formed enzyme-inhibitor complex; conditions: Table 5; tembotrione
Procedure, shortened: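 HPPD (7.2 μM) pre-incubated 1 h at RT with inhibitor (8 μM), then diluted into 25 mM Hepes pH 7, 2 mM ascorbate, 10 μM FeSO4, 100 μM HPP, 50 nM HGD; A320 followed 12 min. Ratio = steady-state rate with inhibitor over initial rate of inhibitor-free enzyme.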

[6] = DKN (diketonitrile form of isoxaflutole)
[7] = DKN (isoxaflutole diketonitrile)

| Molecule | Insensitivity parameter, ON × OFF [1, 6] | ON × OFF × kcat/km fold vs Round 7, variant 9070 [1, 7] | Insensitivity parameter, ON × OFF ([1]; Mesotrione, Table 6) | ON × OFF × kcat/km fold vs Round 7, variant 9070 ([1]; Sulco (sulcotrione)) | Insensitivity parameter, ON × OFF ([1]; Sulcotrione) | ON × OFF × kcat, Value [1] | ON × OFF × kcat, Fold vs wt [1] | ON × OFF, fold vs wt [1] | ON × OFF (parameters with tembotrione) [1] | Insensitivity parameter, ON × OFF ([1]; Tembotrione) | ON × OFF × kcat/km fold vs Round 7, variant 9070 ([1]; Topra (topramezone)) | Insensitivity parameter, ON × OFF ([1]; Topramezon) | ON × OFF × kcat/km fold vs Round 7, variant 9070 ([1]; meso (mesotrione)) | ON × OFF × kcat/km fold vs Round 7, variant 9070 ([1]; tembo (tembotrione)) | kcat [2] [s⁻¹] | Km [3] [µM] | kcat [3] [s⁻¹] | ON ratio (parameters with tembotrione) [4] | OFF ratio (parameters with tembotrione) [5] |
| --- | --- | --- | --- | --- | --- | --- | --- | --- | --- | --- | --- | --- | --- | --- | --- | --- | --- | --- | --- |
| 432R: single substitution A432R in SEQ ID NO:2 (protein, Zea mays variant form created by artificial means.) MGPTPTATAAGAAVAAASAAEQAAFRLVGHRNFVRFNPRSDRFQTLAFHHVELWCADAASAAGRFSFALGVPLAARSDLSTGNSAHASLLLRSGSLSLLFTAPYAHGADAATAALPSFSAAAARRFAADHGLAVRAVALRVADAEDAFRASVAAGARPAFGPVDLGRGFRLAEVELYGDVVLRYVSYPDGAAGEPFLPGFEGVASPGAADYGLSRFDHIVGNVPELAPAAAYMAGFTGFHEFAEFTTEDVGTTESGLNSMALANNSENVLLPLNEPVHGTKRRSQIQTFLDHHGGPGVQHIALASDDVLRTLREMRARSAMGGFEFLPPPLSDYYDGVRRCAGDVLTEAQINECQELGVMVDRDDQGVLLQIFTKPVGDRPTFFLEIIQRIGCMEKDEKGQEYQKGGCGGFGKGNFGQLFKSIEDYEKSLERKQAAAAATAQGS | 0.27 | 2.1 | 0.53 | 1.3 | 0.59 | 4.75 | 4.44 | 30.4 | 0.16 | 0.23 | 1.4 | 0.31 | 1.5 | 1.6 | 0.51 | 1.97 | 0.945 | 0.78 | 0.20 |
| 417Q: single substitution G417Q in SEQ ID NO:2 (protein, Zea mays variant form created by artificial means.) MGPTPTATAAGAAVAAASAAEQAAFRLVGHRNFVRFNPRSDRFQTLAFHHVELWCADAASAAGRFSFALGVPLAARSDLSTGNSAHASLLLRSGSLSLLFTAPYAHGADAATAALPSFSAAAARRFAADHGLAVRAVALRVADAEDAFRASVAAGARPAFGPVDLGRGFRLAEVELYGDVVLRYVSYPDGAAGEPFLPGFEGVASPGAADYGLSRFDHIVGNVPELAPAAAYMAGFTGFHEFAEFTTEDVGTTESGLNSMALANNSENVLLPLNEPVHGTKRRSQIQTFLDHHGGPGVQHIALASDDVLRTLREMRARSAMGGFEFLPPPLSDYYDGVRRCAGDVLTEAQINECQELGVMVDRDDQGVLLQIFTKPVGDRPTFFLEIIQRIGCMEKDEKGQEYQKGGCGGFGKGNFQQLFKSIEDYEKSLEAKQAAAAATAQGS | 0.39 | 1.0 | 0.73 | 1.2 | 0.74 | 4.04 | 3.77 | 38.4 | 0.20 | 0.33 | 1.4 | 0.39 | 1.5 | 1.5 | 0.343 | 1.56 | 0.558 | 0.74 | 0.27 |
| 376W: single substitution 376W in SEQ ID NO:2 (protein, Zea mays variant form created by artificial means.) MGPTPTATAAGAAVAAASAAEQAAFRLVGHRNFVRFNPRSDRFQTLAFHHVELWCADAASAAGRFSFALGVPLAARSDLSTGNSAHASLLLRSGSLSLLFTAPYAHGADAATAALPSFSAAAARRFAADHGLAVRAVALRVADAEDAFRASVAAGARPAFGPVDLGRGFRLAEVELYGDVVLRYVSYPDGAAGEPFLPGFEGVASPGAADYGLSRFDHIVGNVPELAPAAAYMAGFTGFHEFAEFTTEDVGTTESGLNSMALANNSENVLLPLNEPVHGTKRRSQIQTFLDHHGGPGVQHIALASDDVLRTLREMRARSAMGGFEFLPPPLSDYYDGVRRCAGDVLTEAQINECQELGVMVDRDDQGVLLQIFTKWVGDRPTFFLEIIQRIGCMEKDEKGQEYQKGGCGGFGKGNFGQLFKSIEDYEKSLEAKQAAAAATAQGS | 0.37 | – | 0.39 | – | 0.16 | 5.42 | 5.07 | 46.0 | 0.23 | 0.31 | – | 0.32 | – | – | 0.385 | 5.51 | 0.602 | 0.68 | 0.34 |
| 385V: single substitution L385V in SEQ ID NO:2 (protein, Zea mays variant form created by artificial means.) MGPTPTATAAGAAVAAASAAEQAAFRLVGHRNFVRFNPRSDRFQTLAFHHVELWCADAASAAGRFSFALGVPLAARSDLSTGNSAHASLLLRSGSLSLLFTAPYAHGADAATAALPSFSAAAARRFAADHGLAVRAVALRVADAEDAFRASVAAGARPAFGPVDLGRGFRLAEVELYGDVVLRYVSYPDGAAGEPFLPGFEGVASPGAADYGLSRFDHIVGNVPELAPAAAYMAGFTGFHEFAEFTTEDVGTTESGLNSMALANNSENVLLPLNEPVHGTKRRSQIQTFLDHHGGPGVQHIALASDDVLRTLREMRARSAMGGFEFLPPPLSDYYDGVRRCAGDVLTEAQINECQELGVMVDRDDQGVLLQIFTKPVGDRPTFFVEIIQRIGCMEKDEKGQEYQKGGCGGFGKGNFGQLFKSIEDYEKSLEAKQAAAAATAQGS | 0.33 | 1.1 | 0.65 | 1.0 | 0.78 | 5.26 | 4.92 | 48.2 | 0.25 | 0.34 | 1.3 | 0.49 | 1.0 | 1.4 | 0.357 | 1.91 | 0.505 | 0.75 | 0.33 |
